Data on 1 molecule can be found in patent publication US20240067758A1 (UCB, published 2024).

For assay [1], the target named is T1, Human IL22 (human, UniProt Q9GZX6 34-179).
T1 sequence: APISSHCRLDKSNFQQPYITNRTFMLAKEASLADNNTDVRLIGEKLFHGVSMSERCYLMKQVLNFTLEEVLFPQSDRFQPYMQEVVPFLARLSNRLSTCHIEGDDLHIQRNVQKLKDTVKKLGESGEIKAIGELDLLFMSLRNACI
Kind of assay: cell-based or functional assay.

Assay [2] deals with T2, Human IL13 (human, UniProt P35225 35-146, limits assumed). Put plainly: cell-based or functional assay.
The target in assay [3] is T1, Human IL22. Put plainly: SPR; non-stressed T0 sample of the deamidation stress study.
The target in the next assay is T3, Mouse IL13 (mouse, UniProt P20109 26-131, limits assumed).
T3 sequence (looked up): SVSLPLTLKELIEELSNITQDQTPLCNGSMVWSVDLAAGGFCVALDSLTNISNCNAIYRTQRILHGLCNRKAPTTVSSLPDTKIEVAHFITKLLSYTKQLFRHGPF
Put plainly: SPR Biacore T200; TrYbe captured on anti-human F(ab')2, mouse IL13 titrated.

The target of a further assay is T4, Cynomolgus Albumin (cynomolgus, UniProt A2V9Z4 25-608).
T4 construct: also called Cyno Albumin
Kind of assay: SPR Biacore T200; TrYbe captured on anti-human F(ab')2, analyte 100-3 nM; mean KD.

The target in another assay is Mouse Albumin (mouse, UniProt P07724 25-608). The assay is described as above.
For a further assay, the target named is T5, Human Albumin (human, UniProt P02768 25-609).
T5 construct: also called human serum albumin; HSA
The assay is described as above.

Assay [4] deals with T1, Human IL22. Put plainly: SPR Biacore T200; TrYbe captured on anti-human F(ab')2, analyte 10-0.3125 nM; mean KD.
Experimental: (§1) BIA (Biomolecular Interaction Analysis) was performed using T200 (GE Healthcare). Affinipure IgG-F(ab′)₂ Fragment goat anti-human IgG, F(ab′)₂ fragment specific (Jackson ImmunoResearch) was immobilized on a CM5 Sensor Chip via amine coupling chemistry to a capture level of ˜5000 response units (RUs). HBS-EP+buffer (10 mM HEPES pH 7.4, 0.15 M NaCl, 3 mM EDTA, 0.05% Surfactant P20, GE Healthcare) was used as the running buffer with a flow rate of 10 μL/min.
(§2) The surface was generated by 2×10 μL injections of 50 mM HCl, interspersed by a 10 μL injection of 5 mM NaOH at flowrate of 10 μL/min. Background subtraction binding curves were analyzed using the T200 evaluation software (version 3.0) following standard procedures. Kinetic parameters were determined from the fitting algorithm.
The next assay deals with T6, Cynomolgus IL22 (cynomolgus, UniProt G7PHZ7 34-179).
T6 construct: also called Cyno IL22; Cyno IL-22
T6 sequence: T1 sequence with I3V, L32S, H48R, F72L, R95S, R110K
The description is as above.

The target of a further assay is T7, Mouse IL22 (mouse, UniProt Q9JJY9 34-179).
T7 sequence (looked up): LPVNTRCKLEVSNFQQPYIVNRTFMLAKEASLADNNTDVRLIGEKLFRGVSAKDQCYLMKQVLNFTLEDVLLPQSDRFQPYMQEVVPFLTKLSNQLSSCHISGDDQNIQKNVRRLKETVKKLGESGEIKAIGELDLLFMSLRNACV
The description is as above.

The target of assay [5] is T2, Human IL13. The assay is described as above.
Experimental: as §1, §2
A further assay concerns the target T8, Cynomolgus IL13 (cynomolgus, UniProt Q0PW92 21-132).
T8 construct: also called Cyno IL-13
Described as above.

Assay [6] has as its target T1, Human IL22. Kind of assay: SPR; sample stressed 2 weeks at 37 °C, pH 8.0 (Asn95 of light chain CDR3 >40% deamidated).

Numbering of substitutions follows the chain as printed.

Experimental for Cynomolgus Albumin: as §1, §2
Experimental for Cynomolgus IL13: as §1, §2
Experimental for Cynomolgus IL22: as §1, §2
Experimental for Human Albumin: as §1, §2
Experimental for Mouse Albumin: as §1, §2
Experimental for Mouse IL22: as §1, §2

B1: IL13/IL22 TrYbe (other)
heavy: EVQLVESGGGLVQPGGSLRLSCAVSGFSLSSYAMIWVRQAPGKGLEWIGIIDIEGSTYYASWAKGRFTISRDNSKNTVYLQMNSLRAEDTAVYYCARDRFVGVDIFDPWGQGTLVTVSSASTKGPSVFPLAPSSKSTSGGTAALGCLVKDYFPEPVTVSWNSGALTSGVHTFPAVLQSSGLYSLSSVVTVPSSSLGTQTYICNVNHKPSNTKVDKKVEPKSCSGGGGSGGGGSEVQLLESGGGLVQPGGSLRLSCAVSGIDLSNYAINWVRQAPGKCLEWIGIIWASGTTFYATWAKGRFTISRDNSKNTVYLQMNSLRAEDTAVYYCARTVPGYSTAPYFDLWGQGTLVTVSSGGGGSGGGGSGGGGSGGGGSDIQMTQSPSSVSASVGDRVTITCQSSPSVWSNFLSWYQQKPGKAPKLLIYEASKLTSGVPSRFSGSGSGTDFTLTISSLQPEDFATYYCGGGYSSISDTTFGCGTKVEIKRT
light: AVQLTQSPSSLSASVGDRVTITCQASEDIYTNLAWYQQKPGKAPKLLIYWASTLASGVPSRFSGSGSGTDFTLTISSLQPEDFATYYCQASVYGNAADSRYTFGGGTKVEIKRTVAAPSVFIFPPSDEQLKSGTASVVCLLNNFYPREAKVQWKVDNALQSGNSQESVTEQDSKDSTYSLSSTLTLSKADYEKHKVYACEVTHQGLSSPVTKSFNRGECSGGGGSGGGGSEVQLVQSGAEVKKPGSSVKVSCKASGYSFTSYYIHWVRQAPGQCLEWMGRIGPGSGDINYNEKFKGRATFTVDKSTSTAYMELSSLRSEDTAVYYCARFHYDGADWGQGTLVTVSSGGGGSGGGGSGGGGSGGGGSDIQMTQSPSSLSASVGDRVTITCKASQNINENLDWYQQKPGKAPKLLIYYTDILQTGIPSRFSGSGSGTDYTLTISSLQPEDFATYYCYQYYSGYTFGCGTKLEIKRT
notes: also called batches PB8056 and PB7916
With B1, in the assay with Human IL22 [1], the “IC50 (M) Geomean; IL22-induced IL-10 release, COLO205 cells; batch PB7916 (N = 4)” value was determined as 3.4e-11 M. In addition, the “IC50 (M) Geomean; IL22-induced IL-10 release, COLO205 cells; batch PB8056 (N = 4)” value with Human IL22 [1] worked out at 3.66e-11 M. In the assay with Human IL13 [2], the “IC50 (read off the curve), inhibition of eotaxin-3 secretion, primary human keratinocytes stimulated with IL-13 and IL-22 at 100 ng/ml” value was roughly 6000 pM. For the same molecule, the dissociation constant Kd with Human IL22 [3] was 26 pM; with Cynomolgus Albumin it was 1000 to 3000 pM; with Mouse Albumin, 5000 to 6000 pM; with Human Albumin, 1000 to 3000 pM; in the assay with Human IL22 [4] it was less than 100 pM; in the assay with Cynomolgus IL22, less than 100 pM. For the same molecule, the Kd in the assay with Mouse IL22 is 14000 to 25000 pM; with Human IL13 [5] it was less than 100 pM; with Cynomolgus IL13, less than 250 pM; with Human IL22 [6], 30 pM. The koff with Human IL22 [3] turned out to be 3.1e-05 s⁻¹; with Human IL22 [6], 3.2e-05 s⁻¹. The kon in the assay with Human IL22 [3] amounted to 1.2e+06 M⁻¹ s⁻¹; with Human IL22 [6] it was 1.1e+06 M⁻¹ s⁻¹. Also, the binding result with Mouse IL13 is listed as “no binding (tested: 10 nM to 0.3125 nM)”.
